“And” between values parts separate entries of the source, which are not always exact repeats. Equal entries are not always repeated.
Tests used:
[1] = biological target: H7N9病毒的HA蛋白(购自ACROBiosystems) (H7N9 influenza virus)
[2] = biological target: H7N9病毒 A/Anhui/1/2013 (血凝素HA on virus) (influenza A virus A/Anhui/1/2013 (H7N9)); assay: cell-based or functional assay
[3] = biological target: H7N9病毒的HA蛋白(购自ACROBiosystems) (H7N9 influenza virus); remark: listed apart in the source

B1: 抗H7N9全人源单克隆抗体6J15 (antibody, V domains shown)
VH: QVQLVESGAEVKKPGASVKVSCKASGYNIFTSYDINWVRQATGQGLEWMGWMNPDSGDTGFAQKFQGRVTMTRNTSITTAYMELSSLTSEDTAVYYCATGNADCSGSCYNWFDPWGQGTLVTVSS
VL: SSELTQDPAVSVALGQTVRITCQGDRLRSTYYASWYQQKPGQAPVLVIYGKNNRPSGIPDRFSGSSSGNTASLTITGAQAEDEADYYCNSRDTSGYHLVFGGGTKLTVLV
Kd [1]: 2.06 nM | 微量中和-ELISA实验 (MDCK cells, 100TCID50 virus), IC50 [2]: 0.35 mg/L | 450nm (OD) [3]: 2.25 OD 450nm and 1.85 OD 450nm and 1.78 OD 450nm
